Measurements taken from US20130165328, “APPARATUS AND METHODS FOR KINETIC ANALYSIS AND DETERMINATION OF NUCLEIC ACID SEQUENCES” (ILLUMINA, INC., published 2013).

B1: 19/36 mer primer/template duplex (FAM-labelled) (dsDNA)
DNA 1: GCTTGCACAGGGCCTCGAC
DNA 2: CGTTAGTAAGGTCGAGGCCCTGTGCAAGC

How the values were obtained:
KlenTaq polymerase = KlenTaq polymerase (UniProt P19821 P19821:280-832); assay: stopped-flow observed k1; 600 nM enzyme, 100 uM dGTP, 50 mM NaCl, 2 mM MgCl2, pH 7.5; conditions: label: 6-FAM on internal T; hairpin
KlenTaq polymerase, sequence (P19821 280-832, one chain of several): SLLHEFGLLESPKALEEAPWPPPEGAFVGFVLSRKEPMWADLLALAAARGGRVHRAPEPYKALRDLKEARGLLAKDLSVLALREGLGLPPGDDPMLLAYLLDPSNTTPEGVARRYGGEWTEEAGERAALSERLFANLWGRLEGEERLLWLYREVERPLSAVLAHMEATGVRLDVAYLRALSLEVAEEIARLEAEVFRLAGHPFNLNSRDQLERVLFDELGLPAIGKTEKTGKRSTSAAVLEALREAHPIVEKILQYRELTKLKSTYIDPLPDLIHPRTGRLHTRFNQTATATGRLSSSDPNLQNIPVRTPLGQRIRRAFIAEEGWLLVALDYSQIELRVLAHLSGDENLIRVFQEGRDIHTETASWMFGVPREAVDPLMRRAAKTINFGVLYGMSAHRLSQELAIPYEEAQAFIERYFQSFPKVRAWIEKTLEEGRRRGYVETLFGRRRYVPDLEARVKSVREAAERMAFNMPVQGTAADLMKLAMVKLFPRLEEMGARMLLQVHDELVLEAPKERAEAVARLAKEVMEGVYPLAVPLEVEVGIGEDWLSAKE
Experimental: The pre-steady kinetic analysis of Klenow or KlenTaq polymerase for incorporating the cognate nucleotide (dGTP) was monitored following the mixing of 6-carboxyfluorescein (6-FAM) dye label hairpin-DNA template with the enzyme (600 nM) and nucleotide (100 μM) in a reaction buffer containing 50 mM Tris-HCl, pH 7.5, 300 mM NaCl (or 50 mM NaCl in the KlenTaq reaction), 0.5 mM Dithiothreitol and 5 mM MgCl₂ (or 2 mM MgCl₂ in the KlentTaq reaction) in an Applied Photophysics SX20 stopped-flow spectrometer. The 6-FAM hairpin-DNA template was: 5′-[…].[…](6-FAM) CGAG-3′ (SEQ ID NO: 5).

BSU DNA polymerase I = BSU DNA polymerase I (Bacillus subtilis, UniProt O34996 O34996:1-880, second Ser after 6xHis tag replaced by Cys (in tag)); assay: stopped-flow fluorescein quenching; correct dCTP signal rises and mismatch dATP signal falls with NaCl 62.5-375 mM; 10 mM MgSO4; conditions: label: fluorescein-dT in primer, 5 bases from incorporation site; primer/template with 5' template overhang
Source text: Theoretically, it was possible to use an enzyme simulation that predicts the feasibility of correct vs. mismatch base discrimination using enzyme-DNA binding kinetics. […] Rapid mixing is generally achieved using a fast delivery and mixing system to minimize the contribution of the diffusion constants to the overall access of the polymerase to the DNA templates. To determine the validity of the theoretical predictions for base discrimination based on DNA binding kinetics, correct (dCTP) and mismatch (dATP) nucleotides were rapidly mixed with BSU polymerase and FAM labeled 19/36 mer in the presence of various NaCl concentrations with a stopped flow instrument. Pre-steady state correct and mismatch nucleotide kinetic responses of polymerase/DNA binding were made by monitoring the extent of induced fluorescence quenching response. Correct and mismatch nucleotide responses were determined from the stopped flow kinetic raw traces (FIG. 23). The traces were normalized and the maximum fluorescence change was determined and subsequently, correlated with the extent of synchronized enzyme-DNA binding. As [NaCl] was increased and the nucleotide concentration was held constant, the fluorescence change for the correct nucleotide (leftmost bar in each pair of bars in FIG. 24B) was increased, while the response for the mismatch (rightmost bar in each pair of bars in FIG. 24B) was decreased. […]

Row | Binder | binding result (KlenTaq polymerase) | binding result (BSU DNA polymerase I)
1 | CGTTAGTAACCTCGAGGCAACTTAGCCTCGAG (structured_DNA) [6-FAM hairpin-DNA template] | binds | –
2 | B1 | – | binds
